What was measured:
[1] = tested on: HeLa Kyoto; assay: solubility in G1/S (NP-40 vs SDS abundance) (log2 ratio); higher = more soluble; conditions: cell cycle stage: G1/S
[2] = tested on: HeLa Kyoto; assay: melting temperature (median over replicates), in situ; higher = more thermally stable
[3] = tested on: HeLa Kyoto; assay: solubility change mitosis vs G1/S (difference of NP-40 vs SDS log2 ratios) (log2 ratio difference); higher = more soluble in mitosis
[4] = tested on: HeLa Kyoto; assay: thermal stability score vs G1/S (z-score of summed log2 fold changes over temperatures); higher = more thermally stable than in G1/S
[5] = cell cycle stage: early G1 (4.5 h after nocodazole release)
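Throughout, for melting temperature (median over replicates), in situ: HeLa Kyoto cells synchronized by double thymidine or nocodazole block, proteins quantified by TMT10plex mass spectrometry, three independent biological replicates.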
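Throughout, for solubility change mitosis vs G1/S (difference of NP-40 vs SDS log2 ratios): synchronized HeLa Kyoto cells (double thymidine block for G1/S, nocodazole release for mitosis), protein amounts in NP-40 versus SDS lysates quantified by mass spectrometry, three biological replicates.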
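Throughout, for solubility in G1/S (NP-40 vs SDS abundance): HeLa Kyoto cells arrested at G1/S by double thymidine block, proteins quantified by TMT10plex mass spectrometry in mild NP-40 versus SDS extracts, three biological replicates.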
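Throughout, for thermal stability score vs G1/S (z-score of summed log2 fold changes over temperatures): synchronized HeLa Kyoto cells, proteins quantified by TMT10plex mass spectrometry, three biological replicates, mitosis taken 0.5 h after nocodazole release, G1/S directly after double thymidine block.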

Row | Sequence | solubility in G1/S (log2) [1] | melting temperature ([2]; cell cycle stage: G1/S) | melting temperature ([2]; cell cycle stage: mitosis) | solubility change mitosis (log2) [3] | thermal stability score [4, 5] | thermal stability score ([4]; cell cycle stage: mitosis)
1 | MAAAAASLRGVVLGPRGAGLPGARARGLLCSARPGQLPLRTPQAVALSSKSGLSRGRKVMLSALGMLAAGGAGLAMALHSAVSASDLELHPPSYPWSHRGLLSSLDHTSIRRGFQVYKQVCASCHSMDFVAYRHLVGVCYTEDEAKELAAEVEVQDGPNEDGEMFMRPGKLFDYFPKPYPNSEAARAANNGALPPDLSYIVRARHGGEDYVFSLLTGYCEPPTGVSLREGLYFNPYFPGQAIAMAPPIYTDVLEFDDGTPATMSQIAKDVCTFLRWASEPEHDHRKRMGLKMLMMMALLVPLVYTIKRHKWSVLKSRKLAYRPPK [CYC1] | 0.869 | 54.5 °C | 53.5 °C | -0.106 | -5.79 | -6.58
2 | MPKGGRKGGHKGRARQYTSPEEIDAQLQAEKQKAREEEEQKEGGDGAAGDPKKEKKSLDSDESEDEEDDYQQKRKGVEGLIDIENPNRVAQTTKKVTQLDLDGPKELSRREREEIEKQKAKERYMKMHLAGKTEQAKADLARLAIIRKQREEAARKKEEERKAKDDATLSGKRMQSLSLNK [PDAP1] | 0.734 | 57.9 °C | 54.2 °C | 0.473 | -6.85 | -6.55
3 | MAALAPVGSPASRGPRLAAGLRLLPMLGLLQLLAEPGLGRVHHLALKDDVRHKVHLNTFGFFKDGYMVVNVSSLSLNEPEDKDVTIGFSLDRTKNDGFSSYLDEDVNYCILKKQSVSVTLLILDISRSEVRVKSPPEAGTQLPKIIFSRDEKVLGQSQEPNVNPASAGNQTQKTQDGGKSKRSTVDSKAMGEKSFSVHNNGGAVSFQFFFNISTDDQEGLYSLYFHKCLGKELPSDKFTFSLDIEITEKNPDSYLSAGEIPLPKLYISMAFFFFLSGTIWIHILRKRRNDVFKIHWLMAALPFTKSLSLVFHAIDYHYISSQGFPIEGWAVVYYITHLLKGALLFITIALIGTGWAFIKHILSDKDKKIFMIVIPLQVLANVAYIIIESTEEGTTEYGLWKDSLFLVDLLCCGAILFPVVWSIRHLQEASATDGKGDSMGPLQQRANLRAGSRIESHHFAQADLELLASSCPPASVSQRAGITAAINLAKLKLFRHYYVLIVCYIYFTRIIAFLLKLAVPFQWKWLYQLLDETATLVFFVLTGYKFRPASDNPYLQLSQEEEDLEMESVVTTSGVMESMKKVKKVTNGSVEPQGEWEGAV [GPR107] | -0.0201 | – | 53.4 °C | -0.385 | 0.348 | -0.468
4 | MAVSESQLKKMVSKYKYRDLTVRETVNVITLYKDLKPVLDSYVFNDGSSRELMNLTGTIPVPYRGNTYNIPICLWLLDTYPYNPPICFVKPTSSMTIKTGKHVDANGKIYLPYLHEWKHPQSDLLGLIQVMIVVFGDEPPVFSRPISASYPPYQATGPPNTSYMPGMPGGISPYPSGYPPNPSGYPGCPYPPGGPYPATTSSQYPSQPPVTTVGPSRDGTISEDTIRASLISAVSDKLRWRMKEEMDRAQAELNALKRTEEDLKKGHQKLEEMVTRLDQEVAEVDKNIELLKKKDEELSSALEKMENQSENNDIDEVIIPTAPLYKQILNLYAEENAIEDTIFYLGEALRRGVIDLDVFLKHVRLLSRKQFQLRALMQKARKTAGLSDLY [TSG101] | 0.617 | 50.7 °C | 50.2 °C | -0.0618 | -0.385 | -0.589
5 | MKYILVTGGVISGIGKGIIASSVGTILKSCGLHVTSIKIDPYINIDAGTFSPYEHGEVFVLDDGGEVDLDLGNYERFLDIRLTKDNNLTTGKIYQYVINKERKGDYLGKTVQVVPHITDAIQEWVMRQALIPVDEDGLEPQVCVIELGGTVGDIESMPFIEAFRQFQFKVKRENFCNIHVSLVPQPSSTGEQKTKPTQNSVRELRGLGLSPDLVVCRCSNPLDTSVKEKISMFCHVEPEQVICVHDVSSIYRVPLLLEEQGVVDYFLRRLDLPIERQPRKMLMKWKEMADRYDRLLETCSIALVGKYTKFSDSYASVIKALEHSALAINHKLEIKYIDSADLEPITSQEEPVRYHEAWQKLCSAHGVLVPGGFGVRGTEGKIQAIAWARNQKKPFLGVCLGMQLAVVEFSRNVLGWQDANSTEFDPTTSHPVVVDMPEHNPGQMGGTMRLGKRRTLFQTKNSVMRKLYGDADYLEERHRHRFEVNPVWKKCLEEQGLKFVGQDVEGERMEIVELEDHPFFVGVQYHPEFLSRPIKPSPPYFGLLLASVGRLSHYLQKGCRLSPRDTYSDRSGSSSPDSEITELKFPSINHD [CTPS1] | -0.00383 | 55.3 °C | 55.3 °C | -0.0782 | 0.505 | -2.34
6 | MEKNGNNRKLRVCVATCNRADYSKLAPIMFGIKTEPEFFELDVVVLGSHLIDDYGNTYRMIEQDDFDINTRLHTIVRGEDEAAMVESVGLALVKLPDVLNRLKPDIMIVHGDRFDALALATSAALMNIRILHIEGGEVSGTIDDSIRHAITKLAHYHVCCTRSAEQHLISMCEDHDRILLAGCPSYDKLLSAKNKDYMSIIRMWLGDDVKSKDYIVALQHPVTTDIKHSIKMFELTLDALISFNKRTLVLFPNIDAGSKEMVRVMRKKGIEHHPNFRAVKHVPFDQFIQLVAHAGCMIGNSSCGVREVGAFGTPVINLGTRQIGRETGENVLHVRDADTQDKILQALHLQFGKQYPCSKIYGDGNAVPRILKFLKSIDLQEPLQKKFCFPPVKENISQDIDHILETLSALAVDLGGTNLRVAIVSMKGEIVKKYTQFNPKTYEERINLILQMCVEAAAEAVKLNCRILGVGISTGGRVNPREGIVLHSTKLIQEWNSVDLRTPLSDTLHLPVWVDNDGNCAALAERKFGQGKGLENFVTLITGTGIGGGIIHQHELIHGSSFCAAELGHLVVSLDGPDCSCGSHGCIEAYASGMALQREAKKLHDEDLLLVEGMSVPKDEAVGALHLIQAAKLGNAKAQSILRTAGTALGLGVVNILHTMNPSLVILSGVLASHYIHIVKDVIRQQALSSVQDVDVVVSDLVDPALLGAASMVLDYTTRRIY [GNE] | -0.138 | 55.2 °C | 55.8 °C | -0.159 | 3.4 | 4.39
7 | MAAALRVAAVGARLSVLASGLRAAVRSLCSQATSVNERIENKRRTALLGGGQRRIDAQHKRGKLTARERISLLLDPGSFVESDMFVEHRCADFGMAADKNKFPGDSVVTGRGRINGRLVYVFSQDFTVFGGSLSGAHAQKICKIMDQAITVGAPVIGLNDSGGARIQEGVESLAGYADIFLRNVTASGVIPQISLIMGPCAGGAVYSPALTDFTFMVKDTSYLFITGPDVVKSVTNEDVTQEELGGAKTHTTMSGVAHRAFENDVDALCNLRDFFNYLPLSSQDPAPVRECHDPSDRLVPELDTIVPLESTKAYNMVDIIHSVVDEREFFEIMPNYAKNIIVGFARMNGRTVGIVGNQPKVASGCLDINSSVKGARFVRFCDAFNIPLITFVDVPGFLPGTAQEYGGIIRHGAKLLYAFAEATVPKVTVITRKAYGGAYDVMSSKHLCGDTNYAWPTAEIAVMGAKGAVEIIFKGHENVEAAQAEYIEKFANPFPAAVRGFVDDIIQPSSTRARICCDLDVLASKKVQRPWRKHANIPL [PCCB] | -0.114 | 54.3 °C | 54.9 °C | -0.114 | -1.53 | -1.91
8 | MRLPDLRPWTSLLLVDAALLWLLQGPLGTLLPQGLPGLWLEGTLRLGGLWGLLKLRGLLGFVGTLLLPLCLATPLTVSLRALVAGASRAPPARVASAPWSWLLVGYGAAGLSWSLWAVLSPPGAQEKEQDQVNNKVLMWRLLKLSRPDLPLLVAAFFFLVLAVLGETLIPHYSGRVIDILGGDFDPHAFASAIFFMCLFSFGSSLSAGCRGGCFTYTMSRINLRIREQLFSSLLRQDLGFFQETKTGELNSRLSSDTTLMSNWLPLNANVLLRSLVKVVGLYGFMLSISPRLTLLSLLHMPFTIAAEKVYNTRHQEVLREIQDAVARAGQVVREAVGGLQTVRSFGAEEHEVCRYKEALEQCRQLYWRRDLERALYLLVRRVLHLGVQMLMLSCGLQQMQDGELTQGSLLSFMIYQESVGSYVQTLVYIYGDMLSNVGAAEKVFSYMDRQPNLPSPGTLAPTTLQGVVKFQDVSFAYPNRPDRPVLKGLTFTLRPGEVTALVGPNGSGKSTVAALLQNLYQPTGGQVLLDEKPISQYEHCYLHSQVVSVGQEPVLFSGSVRNNIAYGLQSCEDDKVMAAAQAAHADDFIQEMEHGIYTDVGEKGSQLAAGQKQRLAIARALVRDPRVLILDEATSALDVQCEQALQDWNSRGDRTVLVIAHRLQTVQRAHQILVLQEGKLQKLAQL [TAP2] | -0.259 | 49.8 °C | 50.4 °C | -0.195 | 0.266 | 0.39
9 | MTIHQFLLLFLFWVCLPHFCSPEIMFRRTPVPQQRILSSRVPRSDGKILHRQKRGWMWNQFFLLEEYTGSDYQYVGKLHSDQDKGDGSLKYILSGDGAGTLFIIDEKTGDIHATRRIDREEKAFYTLRAQAINRRTLRPVEPESEFVIKIHDINDNEPTFPEEIYTASVPEMSVVGTSVVQVTATDADDPSYGNSARVIYSILQGQPYFSVEPETGIIRTALPNMNRENREQYQVVIQAKDMGGQMGGLSGTTTVNITLTDVNDNPPRFPQNTIHLRVLESSPVGTAIGSVKATDADTGKNAEVEYRIIDGDGTDMFDIVTEKDTQEGIITVKKPLDYESRRLYTLKVEAENTHVDPRFYYLGPFKDTTIVKISIEDVDEPPVFSRSSYLFEVHEDIEVGTIIGTVMARDPDSISSPIRFSLDRHTDLDRIFNIHSGNGSLYTSKPLDRELSQWHNLTVIAAEINNPKETTRVAVFVRILDVNDNAPQFAVFYDTFVCENARPGQLIQTISAVDKDDPLGGQKFFFSLAAVNPNFTVQDNEDNTARILTRKNGFNRHEISTYLLPVVISDNDYPIQSSTGTLTIRVCACDSQGNMQSCSAEALLLPAGLSTGALIAILLCIIILLVIVVLFAALKRQRKKEPLILSKEDIRDNIVSYNDEGGGEEDTQAFDIGTLRNPAAIEEKKLRRDIIPETLFIPRRTPTAPDNTDVRDFINERLKEHDLDPTAPPYDSLATYAYEGNDSIAESLSSLESGTTEGDQNYDYLREWGPRFNKLAEMYGGGESDKDS [CDH10] | 0.0681 | 55.5 °C | 52.5 °C | -0.163 | -0.401 | -1.3
10 | MVHIKKGELTQEEKELLEVIGKGTVQEAGTLLSSKNVRVNCLDENGMTPLMHAAYKGKLDMCKLLLRHGADVNCHQHEHGYTALMFAALSGNKDITWVMLEAGAETDVVNSVGRTAAQMAAFVGQHDCVTIINNFFPRERLDYYTKPQGLDKEPKLPPKLAGPLHKIITTTNLHPVKIVMLVNENPLLTEEAALNKCYRVMDLICEKCMKQRDMNEVLAMKMHYISCIFQKCINFLKDGENKLDTLIKSLLKGRASDGFPVYQEKIIRESIRKFPYCEATLLQQLVRSIAPVEIGSDPTAFSVLTQAITGQVGFVDVEFCTTCGEKGASKRCSVCKMVIYCDQTCQKTHWFTHKKICKNLKDIYEKQQLEAAKEKRQEENHGKLDVNSNCVNEEQPEAEVGISQKDSNPEDSGEGKKESLESEAELEGLQDAPAGPQVSEE [ANKMY2] | 0.124 | 50.1 °C | – | -0.16 | -0.173 | -0.528

Reference: the supplement of paper PMC5998384
